The results in this text go back to article PMC10899662, “TopBP1 utilises a bipartite GINS binding mode to support genome replication” (Nature Communications, 2024).

The Kd is the equilibrium constant for the complex coming apart.

Experiment [1] addresses GINS (6xHis-3xFlag-Sld5, Psf1, Psf2, Psf3) for pulldown experiments (UniProt Q9BRT9).
The next experiment has as its target T1, GINS tetramer (Homo sapiens, UniProt Q14691+Q9BRT9+Q9BRX5+Q9Y248).
T1 construct: made in house; host or cells: SF9 insect cells, single baculovirus made with pBig1a
Put plainly: Fluorescence polarisation of fluorescein-labelled GINI-core peptides with GINS. Format: binding. Particulars: room temperature. The text has this:
As the predicted interface between the TopBP1-GINI region and GINS[32] was not evident in our cryo-EM map we used additional interaction experiments to validate a role for this motif in GINS binding. The GINI region had been loosely defined as sitting between TopBP1-BRCT3 and BRCT4 (Fig. 1a(i)). […] We mutated this core, and other regions of conservation, to generate the mutants TopBP1-Gcc (GINI centre core), Gcore (GINI core) and RI-III (regions I-III) (Fig. 3a, Supplementary Fig. 7). […] To test if this helix constituted a GINS-interaction surface, we used fluorescence polarisation (FP). A fluorescently labelled GINI-core peptide (Ala478-Gly497) bound the GINS tetramer with a dissociation constant of Kd of ~8 µM (Fig. 3d). […] We therefore concluded that the GINI region is a GINS interaction site in its own right, but with moderate binding affinity.
Fig. 3 The conserved core of the TopBP1-GINI domain is required for a stable interaction with GINS. a Domain model and T-COFFEE alignment (one-letter aa code) of TopBP1 proteins from humans (Q92547) Xenopus laevis (Q7ZZY3), Bos taurus (A0A3Q1LWE4) and Rattus norvegicus (A0A8I6GFZ6). […] Source data are provided as a Source data file. d Fluorescence polarisation measurements including dissociation constants (kD) calculations using recombinant GINS tetramer and fluorescently labelled TopBP1-GINI-core peptides (WT or Gpp (a)). […]

The test system of another experiment is GINS complex. The experiment is described as follows: Size exclusion chromatography co-elution with GINS. Format: binding. As to conditions: Superdex200; 20 µM of each component; 10 mM HEPES pH 7.5, 150 mM NaCl, 0.5 mM TCEP. The procedure:
Recombinant TopBP1 and GINS proteins were mixed in an equimolar ratio to give a final concentration of 20 µM of each component and incubated on ice for at least 30 min prior to application to a Superdex200increase 10 300 column (GE Healthcare, Little Chalfont, UK) equilibrated in 10 mM HEPES pH 7.5, 150 mM NaCl, 0.5 mM TCEP.
For orientation: Size exclusion chromatography separates by hydrodynamic size, large species first.

The next experiment relates to GINS. Put plainly: Pulldown of recombinant TopBP1-BRCT0-5 by immobilised GINS, 150 mM NaCl. It counts as binding. As to conditions: summary of recombinant protein interaction tests (yes/no). The text has this: Fig. 1 GINS and TopBP1 interact. a (i) Domain model of human (hs) TopBP1, its conservation with BRCT1/2 and 3/4 domains (grey boxes) of budding yeast Dpb11 (scDpb11). Arrows point to binding domains for interacting proteins. (ii) Overview of TopBP1 wild type (WT) and BRCT deletion (Δ) and point mutants. GINS binding capabilities are labelled in red and green. Numbers, amino acid position; capital letters indicate amino acid substitutions. Amino acid substitutions of point mutants in BRCT4 (B4mut) and 5 (B5mut) are coloured orange. b Elution profiles of size exclusion chromatography (Superdex200) of individual recombinant TopBP1-BRCT0-5 protein (grey) and GINS tetramers (green), or of both upon incubation (blue). c Recombinant GINS immobilised on Flag-beads and control beads (Flag peptide-coupled beads) were used to pull down recombinant TopBP1-0-5-WT or TopBP1-ΔBRCT4/5 (compare a(ii)). SDS gels were silver stained. kDa specifies molecular weight marker bands. The experiment was done more than three times with similar results. Source data are provided as a Source data file. TEXT PRINTED IN THE PICTURE: (a) BRCT0-5-WT: GINS binding? (rec. proteins): yes | (a) ΔBRCT4/5: GINS binding? (rec. proteins): no | (a) ΔBRCT3: GINS binding? (rec. proteins): yes | (a) ΔBRCT0/1/2: GINS binding? (rec. proteins): yes | (a) B5mut: GINS binding? (rec. proteins): yes | (a) B4mut: GINS binding? (rec. proteins): no
Fig. 2 Protein structure of the GINS-TopBP1-BRCT4/5 complex. a Structural model of the GINS-TopBP1-BRCT4/5 complex. Crystal structures of the GINS subunits (PDB:2E9X) (shades of green, yellow), and the central BRCT4/5 domain of TopBP1 (PDB:3UEN) (grey) were docked into the cryo-EM volume shown as transparent volume. b Zoom-in of the BRCT4-Psf1 interface. The residues in stick representation appear crucial for the interface. Mutations to break the interaction are coloured pink (Psf1-I97R) and purple (TopBP1-B4mut; compare Fig. 1a(ii)). c Pulldown of the indicated recombinant TopBP1-BRCT0-5-strep versions (see Fig. 1a(ii)) by Flag-beads-immobilised recombinant GINS or Flag peptide-coupled control beads. Analysis was done by immunoblotting. The experiment was done more than three times with similar results. d Pulldown of the indicated recombinant TopBP1-BRCT0-5-WT-strep using immobilised GINS-WT or GINS carrying a Ile97 to arginine mutation in Psf1.TopBP1-Gcc/B4mut-strep (Figs. 1a(ii) and 3a) was used as a non-GINS binding control. The experiment was done twice with similar results. Source data are provided as a Source data file.
Fig. 3 The conserved core of the TopBP1-GINI domain is required for a stable interaction with GINS. a Domain model and T-COFFEE alignment (one-letter aa code) of TopBP1 proteins from humans (Q92547) Xenopus laevis (Q7ZZY3), Bos taurus (A0A3Q1LWE4) and Rattus norvegicus (A0A8I6GFZ6). Coloured boxes indicate GINI region mutants in sub-regions I (blue), II (green) and III (orange), and in the GINI core helix (red) (details in Supplementary Fig. 7). Amino acid substitutions, names of GINI core region mutations and corresponding GINS binding capabilities are shown. ., : and * indicate low conservation, high conservation and identical amino acids, respectively. b/c Pulldown of recombinant TopBP1-BRCT0-5-strep-WT or the indicated GINI region mutants (a) by bead-immobilised GINS or Flag peptide-coupled control beads. Analysis was done by immunoblotting. The experiments were done more than three times with similar results. Source data are provided as a Source data file. d Fluorescence polarisation measurements including dissociation constants (kD) calculations using recombinant GINS tetramer and fluorescently labelled TopBP1-GINI-core peptides (WT or Gpp (a)). For each peptide n = 3 independent experiments and data are presented as mean values +/−SEM. TEXT PRINTED IN THE PICTURE: (a) TopBP1-Gcc: GINS binding? (rec. proteins): no | (a) TopBP1-Gcore: GINS binding? […]

Experiment [2] concerns the target T2, GINS (HIS-(3C)-Sld5, Psf1, Psf2, Psf3) for structural and fluorescence polarisation studies (UniProt Q9BRT9 1-223; Q14691 1-196; Q9Y248 1-185; Q9BRX5 1-216).
T2 construct: Sld5 subunit of GINS; Psf1 subunit of GINS, with its B domain; Psf2 subunit of GINS; Psf3 subunit of GINS; A 3C site follows the His tag on Sld5; no cleavage is described; also called GINS tetramer; GINS complex; source: Sf9 insect cells, single baculovirus (pBig1a), purified (TALON, Superdex200); copies: + + +
Put plainly: fluorescence polarisation; 100 nM fluorescein-labelled peptide, increasing concentrations of GINS; 25 mM HEPES pH 7.5, 150 mM NaCl, 1 mM EDTA, 0.25 mM TCEP, 0.02% Tween 20; room temperature. Particulars: both partners purified. On the technique in general: In fluorescence polarisation assays a small probe gives low polarisation when free and higher when bound to something large.

Residues, ends and D or L forms follow the SMILES beside them. No end group written: not given here. *: point of attachment. 5FAM = O=C1OC2(c3ccc(O)cc3Oc3cc(O)ccc32)c2ccc(C(=O)*)cc21; Flu = fluorescein

T1 sequence (Q14691 whole entry): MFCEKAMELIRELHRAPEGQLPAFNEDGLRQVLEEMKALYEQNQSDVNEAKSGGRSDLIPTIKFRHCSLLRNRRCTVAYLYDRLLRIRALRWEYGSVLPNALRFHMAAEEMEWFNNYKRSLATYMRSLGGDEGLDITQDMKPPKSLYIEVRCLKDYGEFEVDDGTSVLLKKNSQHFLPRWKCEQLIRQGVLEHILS
T1 sequence (Q9BRX5 whole entry): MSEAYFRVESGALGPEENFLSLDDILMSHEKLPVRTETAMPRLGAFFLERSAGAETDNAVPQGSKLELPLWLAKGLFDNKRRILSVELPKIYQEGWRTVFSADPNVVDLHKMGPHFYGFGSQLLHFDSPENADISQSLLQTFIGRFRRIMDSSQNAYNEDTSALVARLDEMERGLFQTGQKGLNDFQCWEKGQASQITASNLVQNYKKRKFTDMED
T1 sequence (Q9Y248 whole entry partner): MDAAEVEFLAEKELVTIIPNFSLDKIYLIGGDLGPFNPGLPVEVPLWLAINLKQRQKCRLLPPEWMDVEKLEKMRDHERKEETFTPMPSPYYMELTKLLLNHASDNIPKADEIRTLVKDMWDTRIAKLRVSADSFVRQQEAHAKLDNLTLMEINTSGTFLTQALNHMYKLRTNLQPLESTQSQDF
T1 sequence (Q9BRT9 whole entry partner): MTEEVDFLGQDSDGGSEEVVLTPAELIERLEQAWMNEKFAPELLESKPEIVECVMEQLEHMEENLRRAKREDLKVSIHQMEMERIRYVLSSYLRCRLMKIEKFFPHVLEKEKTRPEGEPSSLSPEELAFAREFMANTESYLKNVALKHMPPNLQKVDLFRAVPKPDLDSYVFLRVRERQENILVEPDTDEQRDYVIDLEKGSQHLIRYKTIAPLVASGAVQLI
T2 sequence (Q9BRT9 whole entry, chain 1 of 4): as the sequence (Q9BRT9 whole entry partner) above
T2 sequence (Q14691 whole entry, chain 2 of 4): as the sequence (Q14691 whole entry) above
T2 sequence (Q9Y248 whole entry, chain 3 of 4): as the sequence (Q9Y248 whole entry partner) above
T2 sequence (Q9BRX5 whole entry, chain 4 of 4): as the sequence (Q9BRX5 whole entry) above
Sequence of GINS (6xHis-3xFlag-Sld5, Psf1, Psf2, Psf3) for pulldown experiments (Q9BRT9 whole entry, chain 1 of 4): as the sequence (Q9BRT9 whole entry partner) above
Sequence of GINS (6xHis-3xFlag-Sld5, Psf1, Psf2, Psf3) for pulldown experiments (Q14691 whole entry, chain 2 of 4, further chain): as the sequence (Q14691 whole entry) above
Sequence of GINS (6xHis-3xFlag-Sld5, Psf1, Psf2, Psf3) for pulldown experiments (Q9Y248 whole entry, chain 3 of 4, further chain): as the sequence (Q9Y248 whole entry partner) above
Sequence of GINS (6xHis-3xFlag-Sld5, Psf1, Psf2, Psf3) for pulldown experiments (Q9BRX5 whole entry, chain 4 of 4, further chain): as the sequence (Q9BRX5 whole entry) above

“TopBP1-BRCT0-5-Gcc (from UniProt Q92547 1-766) (domain or fragment)” showed a reduction of nucleotide incorporation (α-32P-dCTP) in TopBP1-depleted Xenopus egg extract after add-back, 120 min time point in experiment [1] of 21%.
In the case of “Flu-GYGAPSEKHEQADEDPPSQYENG [TOPBP1(478-497) L490P L491P, fluorescein-labelled GINI-core peptide with LL to PP mutation]”, the “binding to GINS by fluorescence polarisation” value on GINS tetramer (peptide 100 nM, 150 mM NaCl, n = 3) is recorded as “failed to bind”.
With `CC(C)C[C@H](NC(=O)[C@H](CC(=O)O)NC(=O)[C@H](CCC(=O)O)NC(=O)[C@H](CC(=O)O)NC(=O)[C@H](C)NC(=O)[C@H](CCC(N)=O)NC(=O)[C@H](CCC(=O)O)NC(=O)[C@H](Cc1c[nH]cn1)NC(=O)[C@H](CCCCN)NC(=O)[C@H](CCC(=O)O)NC(=O)[C@H](CO)NC(=O)[C@@H]1CCCN1C(=O)[C@H](C)NC(=O)CNC(=O)[C@H](Cc1ccc(O)cc1)NC(=O)CNC(=O)c1ccc2c(c1)C(=O)OC21c2ccc(O)cc2Oc2cc(O)ccc21)C(=O)N[C@@H](CC(C)C)C(=O)N[C@@H](CO)C(=O)N[C@@H](CCC(N)=O)C(=O)N[C@@H](Cc1ccc(O)cc1)C(=O)N[C@@H](CCC(=O)O)C(=O)N[C@@H](CC(N)=O)C(=O)NCC(=O)O` [TOPBP1(478-497)] (5FAM-GYGAPSEKHEQADEDLLSQYENG-OH), on GINS tetramer (fluorescein-labelled peptide 100 nM, increasing GINS, 25 mM HEPES pH 7.5, 150 mM NaCl, 1 mM EDTA, 0.25 mM TCEP, 0.02% Tween 20, n = 3 independent experiments, interval printed in figure (7.037 - 8.809), read-out: dissociation constant Kd (fluorescence polarisation)), the Kd was determined as 7.88 µM.

B1: TopBP1-ΔBRCT0/1/2: TopBP1-BRCT0-5 with BRCT0-2 module removed (protein)
chain: NSLNSKLEPTLENLENLDVSAFQAPEDLLDGCRIYLCGFSGRKLDKLRRLINSGGGVRFNQLNEDVTHVIVGDYDDELKQFWNKSAHRPHVVGAKWLLECFSKGYMLSEEPYIHANYQPVEIPVSHKPESKAALLKKKNSSFSKKDFAPSEKHEQADEDLLSQYENGSSTVVEAKTSEARPFNDSTHAEPLNDSTHISLQEENQSSVSHCVPDVSTITEEGLFSQKSFLVLGFSNENESNIANIIKENAGKIMSLLSRTVADYAVVPLLGCEVEATVGEVVTNTWLVTCIDYQTLFDPKSNPLFTPVPVMTGMTPLEDCVISFSQCAGAEKESLTFLANLLGASVQEYFVRKSNAKKGMFASTHLILKERGGSKYEAAKKWNLPAVTIAWLLETARTGKRADESHFLIENSTKEERSLETEITNGINLNSDTAEHP
modifications: left off: His, N-terminal, state not stated | Strep, C-terminal, state not stated
notes: TopBP1-BRCT0-5 with BRCT0-2 module removed
On to B1, for which, in the experiment on GINS complex, the “co-elution with GINS from size exclusion column” value was “did not affect binding”. The “GINS binding? (rec. proteins)” value in the experiment with GINS was “yes”.

B2: fluorescently labelled GINI-core peptide (Ala478-Gly497), WT (peptide)
peptide: Flu-GYGAPSEKHEQADEDLLSQYENG
modifications: not fully specified; printed as Flu-GYGAPSEKHEQADEDLLSQYENG
notes: three residues printed before the TopBP1 stretch Ala478-Gly497; human TopBP1 GINI core, Ala478-Gly497; also called TopBP1-GINI-core peptide WT; source: synthetic peptide (Peptide Protein Research Ltd)
B2: in experiment [2], the Kd is about 8 µM.
